How the values were obtained:
[1] = Brain clearance technique: clearance of radiolabelled tracer from brain ISF and across the BBB after microinjection into the caudate nucleus; format: in vivo; conditions: for clearance from the brain ISF: 40 nM tracer microinjected into brain ISF, FIG. 1A/1B
Experimental: The brain clearance technique was used to determine Aβ clearance across the BBB and from CSF, as previously described (Shibata et al., 2000; Deane et al., 2004). Briefly, 0.5 μl of ^125I-Aβ42 (40 nM), ^125I-apoJ (40 nM) or ^125I-Aβ-apoJ (40 nM) was microinjected into the caudate nucleus simultaneously with ^14C-inulin (an inert reference molecule as an index of interstitial fluid (ISF) bulk flow) and, after 30 minutes (a typical time point unless stated), the brain was removed and radiolabel was counted.
^125I-Aβ-apoJ complex was prepared by incubating ^125I-Aβ42 and apoJ at a molar ratio of 15 to 1 (^125I-Aβ42: apoJ) at 37° C. for 3 hours, and excess ^125I-Aβ42 was removed by ultrafiltration with a 30 kD molecular weight cut-off membrane.
(§1) Percentage ^125I-(TCA precipitable) recovery in brain=NB/NI×100. Where NB is the ^125I-(TCA precipitable) recovered in brain and NI is the ^125I-(TCA precipitable) injected into brain ISF or CSF. Total ^125I-(TCA precipitable) clearance from brain ISF consists of two components: clearance across the BBB and clearance via bulk flow of ISF. Therefore, clearance across the BBB was calculated from the difference between total ^125I-(TCA precipitable) clearance and ^14C-inulin clearance (ISF bulk flow) as described (Shibata et al., 2000). Similarly, the percentage ^125I-(TCA precipitable) recovery in brain after microinjection into the CSF=NB/NI×100.

[2] = CSF clearance study: microinjection into the lateral ventricle; format: in vivo; conditions: 40 nM; after 30 minutes; microinjection into the lateral ventricles; FIG. 1E
Experimental: In the CSF clearance studies, 0.5 μl of ^125I-apoJ (40 nM) was micro-injected into the right lateral ventricles (coordinates (mm) from bregma: antero-posterior −0.5, mediolateral +1.0, dorsoventral −2.2) simultaneously with ^14C-inulin (the inert reference molecule), the brain was removed after 30 minutes, and radiolabel was counted.
as §1

[3] = after microinjection into the brain, FIG. 1C

Substance	clearance from the brain ISF [1]	clearance from brain relative to ^125I-Aβ42 (40 nM) ([1]; 40 nM, time-dependent clearance, FIG. 1B)	levels in plasma, compared to inulin [1, 3]	time dependent appearance of TCA precipitable radioactivity in CSF, compared to ^14C-inulin [1, 3]	clearance from the CSF as compared to ^14C-inulin [2]	clearance of ^125I-Aβ42 across the BBB ([1]; in vivo)	clearance via the ISF bulk flow ([1]; in vivo)
inulin [^14C-inulin, reference compound]	slowly removed						
^125I-apoJ: apolipoprotein J, an 80 kDa sulfated glycoprotein, ligand of LRP2, radioiodinated tracer	rapidly cleared	substantially faster	relatively increased	decreased	rapidly cleared		
^125I-Aβ42: amyloid-β peptide Aβ42, amyloidogenic with high β-sheet content, radioiodinated tracer [reference compound]						22%±2%	no a significant change

Source: patent US20090156525A1, “Low-Density Lipoprotein Receptor-Related Protein 2 Clears Amyloid-Beta Peptide A cross the Blood-Brain Barrier via Apolipoprotein J” (priority 2005, published 2009)
